94 variants from the supplement of paper PMC10567573 can be followed below.

To fix the notation:
B1: KRT71 (parent)
chain: ELRNVQDVVEDYKKRYEEEINKRT
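Also: lentivirally expressed fusions sorted by FACS into six bins by GFP to DsRed ratio, PSI derived from sequencing read proportions per bin multiplied by bin number.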

The variants in this series derive from B1. Put plainly: protein stability index of a GFP-peptide fusion (GPS, HEK-293T) (PSI 1-6); higher = more stable. The settings on record: c terminus: a fixed tail appended.
For ELRNVQDVVEDYKKRYEEEINKKT [R23K], the protein stability index was 4.2. Then ELRNVQDVVEDYKKRYEEEINKNT [R23N], with 4.11; and ELRNVQDVVEDYKKRYEEEINKIT [R23I], with 3.72.

Regarding ELRNVQDVVEDYKKRYEEEINKMT [R23M], the protein stability index was found to be 3.03. Then ELRNVQDVVEDYKKRYEEEINKFT [R23F], with 3.71; and ELRNVQDVVEDYKKRYEEEINKLT [R23L], with 3.63; and ELRNVQDVVEDYKKRYEEEINKPT [R23P], with 3.56. Turning to ELRNVQDVVEDYKKRYEEEINKTT [R23T], the protein stability index was found to be 4.69. The result for ELRNVQDVVEDYKKRYEEEINKYT [R23Y] reads 3.98; that for ELRNVQDVVEDYKKRYEEEINKCT [R23C], 3.84. Then ELRNVQDVVEDYKKRYEEEINKET [R23E], with 4.63; and ELRNVQDVVEDYKKRYEEEINKQT [R23Q], with 3.83. In the case of ELRNVQDVVEDYKKRYEEEINKVT [R23V], the protein stability index was 3.93.

Regarding ELRNVQDVVEDYKKRYEEEINKGT [R23G], the protein stability index amounted to 4.1. The result for ELRNVQDVVEDYKKRYEEEINKHT [R23H] reads 4.09; that for ELRNVQDVVEDYKKRYEEEINKST [R23S], 4.27; that for ELRNVQDVVEDYKKRYEEETNKRT [I20T], 3.65. For the variant ELRNVQDVVEDYKKRYEEEMNKRT [I20M], the protein stability index worked out at 4.12. Then ELRNVQDVVEDYKKRYEEESNKRT [I20S], with 4.25; and ELRNVQDVVEDYKKRYEEERNKRT [I20R], with 3.22. Then ELRNVQDVVEDYKKRYEEECNKRT [I20C], with 4.07; and ELRNVQDVVEDYKKRYEEEHNKRT [I20H], with 4.07. On to ELRNVQDVVEDYKKRYEEEANKRT [I20A], for which the protein stability index amounted to 4.88. Then ELRNVQDVVEDYKKRYEEEPNKRT [I20P], with 3.71.

Regarding ELRNVQDVVEDYKKRYEEEVNKRT [I20V], the protein stability index amounted to 4.2. Turning to ELRNVQDVVEDYKKRYEEELNKRT [I20L], the protein stability index came out at 4.32. The result for ELRNVQDVVEDYKKRYEEEGNKRT [I20G] reads 4.05; that for ELRNVQDVVEDYKKRYEEENNKRT [I20N], 4; that for ELRNVQDVVEDYKKRYEEEENKRT [I20E], 3.6. Then ELRNVQDVVEDYKKRYEEEQNKRT [I20Q], with 3.74; and ELRNVQDVVEDYKKRYEEEWNKRT [I20W], with 3.2; and ELRNVQDVVEDYKKRYEEEYNKRT [I20Y], with 3.15. ELRNVQDVVEDYKKRYEEEINQRT [K22Q]: the protein stability index is 4.35. Then ELRNVQDVVEDYKKRYEEEINHRT [K22H], with 3.68. The result for ELRNVQDVVEDYKKRYEEEINFRT [K22F] reads 4.47; that for ELRNVQDVVEDYKKRYEEEINNRT [K22N], 4.11. Then ELRNVQDVVEDYKKRYEEEINART [K22A], with 3.74. Take ELRNVQDVVEDYKKRYEEEINLRT [K22L]: the protein stability index was 3.28. The result for ELRNVQDVVEDYKKRYEEEINTRT [K22T] reads 4.15; that for ELRNVQDVVEDYKKRYEEEINWRT [K22W], 3.9.

Consider ELRNVQDVVEDYKKRYEEEINMRT [K22M], for which the protein stability index is 3.92. In the case of ELRNVQDVVEDYKKRYEEEINIRT [K22I], the protein stability index came out at 3.28. Then ELRNVQDVVEDYKKRYEEEINCRT [K22C], with 4.19; and ELRNVQDVVEDYKKRYEEEINYRT [K22Y], with 3.43. The result for ELRNVQDVVEDYKKRYEEEINPRT [K22P] reads 3.47; that for ELRNVQDVVEDYKKRYEEEINDRT [K22D], 3.57; that for ELRNVQDVVEDYKKRYEEEINERT [K22E], 3.43. Then ELRNVQDVVEDYKKRYEEEINRRT [K22R], with 4.21; and ELRNVQDVVEDYKKRYEEEINGRT [K22G], with 3.27. ELRNVQDVVEDYKKRYEEEINKRY [T24Y]: the protein stability index is 3.18. The result for ELRNVQDVVEDYKKRYEEEINKRD [T24D] reads 4.64. On to ELRNVQDVVEDYKKRYEEEINKRS [T24S], for which the protein stability index stood at 3.4. Then ELRNVQDVVEDYKKRYEEEINKRM [T24M], with 3.54; and ELRNVQDVVEDYKKRYEEEINKRW [T24W], with 3.62.

With ELRNVQDVVEDYKKRYEEEINKRP [T24P], the protein stability index was determined as 4.39. Turning to ELRNVQDVVEDYKKRYEEEINKRV [T24V], the protein stability index stood at 3.69. The result for ELRNVQDVVEDYKKRYEEEINKRN [T24N] reads 3.14. For ELRNVQDVVEDYKKRYEEEINKRI [T24I], the protein stability index came out at 4.02. Then ELRNVQDVVEDYKKRYEEEINKRL [T24L], with 3.58; and ELRNVQDVVEDYKKRYEEEINKRG [T24G], with 3.94; and ELRNVQDVVEDYKKRYEEEINKRE [T24E], with 4.57. The result for ELRNVQDVVEDYKKRYEEEINKRK [T24K] reads 4.43.

On to ELRNVQDVVEDYKKRYEEEINKRF [T24F], for which the protein stability index was 2.85. Then ELRNVQDVVEDYKKRYEEEINKRA [T24A], with 3.08; and ELRNVQDVVEDYKKRYEEEINKRQ [T24Q], with 4.56; and ELRNVQDVVEDYKKRYEEEINKRR [T24R], with 4.41. The result for ELRNVQDVVEDYKKRYEEYINKRT [E19Y] reads 2.88; that for ELRNVQDVVEDYKKRYEEMINKRT [E19M], 2.73; that for ELRNVQDVVEDYKKRYEEIINKRT [E19I], 3.39.

Regarding ELRNVQDVVEDYKKRYEETINKRT [E19T], the protein stability index came to 4.16. The result for ELRNVQDVVEDYKKRYEENINKRT [E19N] reads 2.71. The result for ELRNVQDVVEDYKKRYEEPINKRT [E19P] reads 4.28; that for ELRNVQDVVEDYKKRYEESINKRT [E19S], 3.69; that for ELRNVQDVVEDYKKRYEEWINKRT [E19W], 2.92. On to ELRNVQDVVEDYKKRYEERINKRT [E19R], for which the protein stability index was 4.11.

As for ELRNVQDVVEDYKKRYEEQINKRT [E19Q], the protein stability index is 2.54. Then ELRNVQDVVEDYKKRYEEVINKRT [E19V], with 3.48; and ELRNVQDVVEDYKKRYEEKINKRT [E19K], with 3.21; and ELRNVQDVVEDYKKRYEEEIGKRT [N21G], with 3.77.

As for ELRNVQDVVEDYKKRYEEEILKRT [N21L], the protein stability index is 3.83. The result for ELRNVQDVVEDYKKRYEEEIAKRT [N21A] reads 4.15; that for ELRNVQDVVEDYKKRYEEEICKRT [N21C], 3.73; that for ELRNVQDVVEDYKKRYEEEIRKRT [N21R], 3.92. Turning to ELRNVQDVVEDYKKRYEEEIFKRT [N21F], the protein stability index amounted to 3.55. Then ELRNVQDVVEDYKKRYEEEIMKRT [N21M], with 2.79. Then ELRNVQDVVEDYKKRYEEEIVKRT [N21V], with 4.3; and ELRNVQDVVEDYKKRYEEEIKKRT [N21K], with 4.54.

Turning to ELRNVQDVVEDYKKRYEEEISKRT [N21S], the protein stability index was 4.27. In the case of ELRNVQDVVEDYKKRYEEEIIKRT [N21I], the protein stability index was 1.94.

As for ELRNVQDVVEDYKKRYEEEIYKRT [N21Y], the protein stability index came out at 3.65.

As to ELRNVQDVVEDYKKRYEEEIDKRT [N21D], the protein stability index came to 3.8.

On to ELRNVQDVVEDYKKRYEEEITKRT [N21T], for which the protein stability index was found to be 2.89. The result for ELRNVQDVVEDYKKRYEEEIHKRT [N21H] reads 4.26; that for ELRNVQDVVEDYKKRYEEEIQKRT [N21Q], 3.51.
